Measurements reported in FireProtDB (doi:10.1016/j.bbapap.2014.10.010).

B1: Alanine--glyoxylate aminotransferase, P21549 (parent)
chain: MASHKLLVTPPKALLKPLSIPNQLLLGPGPSNLPPRIMAAGGLQMIGSMSKDMYQIMDEIKEGIQYVFQTRNPLTLVISGSGHCALEAALVNVLEPGDSFLVGANGIWGQRAVDIGERIGARVHPMTKDPGGHYTLQEVEEGLAQHKPVLLFLTHGESSTGVLQPLDGFGELCHRYKCLLLVDSVASLGGTPLYMDRQGIDILYSGSQKALNAPPGTSLISFSDKAKKKMYSRKTKPFSFYLDIKWLANFWGCDDQPRMYHHTIPVISLYSLRESLALIAEQGLENSWRQHREAAAYLHGRLQALGLQLFVKDPALRLPTVTTVAVPAGYDWRDIVSYVIDHFDIEIMGGLGPSTGKVLRIGLLGCNATRENVDRVTEALRAALQHCPKKKL

Variants of: B1
Conditions: Homo sapiens; pH 7.4; Thermal; DSC; Hepes 20 mM; NaCl 200 mM; transition: 2; reversible: No; structure 1H0C; whole UniProt chain shown

| Variant | Tm | change of melting temperature, mutant - wild type (higher = more stable) | unfolding enthalpy (calorimetric) |
| --- | --- | --- | --- |
| MASHKLLVTPLKALLKPLSIPNQLLLGPGPSNLPPRIMAAGGLQMIGSMSKDMYQIMDEIKEGIQYVFQTRNPLTLVISGSGHCALEAALVNVLEPGDSFLVGANGIWGQRAVDIGERIGARVHPMTKDPGGHYTLQEVEEGLAQHKPVLLFLTHGESSTGVLQPLDGFGELCHRYKCLLLVDSVASLGGTPLYMDRQGIDILYSGSQKALNAPPGTSLISFSDKAKKKMYSRKTKPFSFYLDIKWLANFWGCDDQPRMYHHTIPVISLYSLRESLALIAEQGLENSWRQHREAAAYLHGRLQALGLQLFVKDPALRLPTVTTVAVPAGYDWRDIVSYVMDHFDIEIMGGLGPSTGKVLRIGLLGCNATRENVDRVTEALRAALQHCPKKKL [P11L I340M] | 76.6 °C | 6.6 °C | 1570 kJ/mol |
| MASHKLLVTPPKALLKPLSIPNRLLLGPGPSNLPPRIMAAGGLQMIGSMSKDMYQIMDEIKEGIQYVFQTRNPLTLVISGSGHCALEAALVNVLEPGDSFLVGANGIWGQRAVDIGERIGARVHPMTKDPGGHYTLQEVEEGLAQHKPVLLFLTHGESSTGVLQPLDGFGELCHRYKCLLLVDSVASLGGTPLYMDRQGIDILYSGSQKALNAPPGTSLISFSDKAKKKMYSRKTKPFSFYLDIKWLANFWGCDDQPRMYHHTIPVISLYSLRESLALIAEQGLENSWRQHREAAAYLHGRLQALGLQLFVKDPALRLPTVTTVAVPAGYDWRDIVSYVIDHFDIEIMGGLGPSTGKVLRIGLLGCNATRENVDRVTEALRAALQHCPKKKL [Q23R] | 84.5 °C | 14.5 °C | 1990 kJ/mol |
| MASHKLLVTPLKALLKPLSIPNQLLLGPGPSNLPPRIMAAGGLQMIGSMSKDMYQIMDEIKEGIQYVFQTRNPLTLVISGSGHCALEAALVNVLEPGDSFLVGANGIWGQRAVDIGERIGARVHPMTKDPGGHYTLQEVEEGLAQHKPVLLFLTHGESSTGVLQPLDGFRELCHRYKCLLLVDSVASLGGTPLYMDRQGIDILYSGSQKALNAPPGTSLISFSDKAKKKMYSRKTKPFSFYLDIKWLANFWGCDDQPRMYHHTIPVISLYSLRESLALIAEQGLENSWRQHREAAAYLHGRLQALGLQLFVKDPALRLPTVTTVAVPAGYDWRDIVSYVMDHFDIEIMGGLGPSTGKVLRIGLLGCNATRENVDRVTEALRAALQHCPKKKL [P11L I340M G170R] | 75.5 °C | 5.5 °C | 1920 kJ/mol |
| MASHKLLVTPLKALLKPLSIPNQLLLGPGPSNLPPRIMAAGGLQMIGSMSKDMYQIMDEIKEGIQYVFQTRNPLTLVISGSGHCALEAALVNVLEPGDSFLVGANGIWGQRAVDIGERIGARVHPMTKDPGGHYTLQEVEEGLAQHKPVLLFLTHGESSTGVLQPLDGFGELCHRYKCLLLVDSVASLGGTPLYMDRQGIDILYSGSQKALNAPPGTSLISFSDKAKKKMYSRKTKPFSFYLDIKWLANFWGCDDQPRMYHHTIPVISLYSLRESLALIAEQGLENSWRQHREAAAYLHGRLQALGLQLFVKDPALRLPTVTTVAVPAGYDWRDIVSYVIDHFDIEIMGGLGPSTGKVLRIGLLGCNATRENVDRVTEALRAALQHCPKKKL [P11L] | 73.8 °C | 3.8 °C | 1670 kJ/mol |
| MASHKLLVTPPKALLKPLSIPNQLLLGPGPSNLPPRIMAAGGLQMIGHMSKDMYQIMDEIKEGIQYVFQTRNPLTLVISGSGHCALEAALVNVLEPGDSFLVGANGIWGQRAVDIGERIGARVHPMTKDPGGHYTLQEVEEGLAQHKPVLLFLTHGESSTGVLQPLDGFGELCHRYKCLLLVDSVASLGGTPLYMDRQGIDILYSGSQKALNAPPGTSLISFSDKAKKKMYSRKTKPFSFYLDIKWLANFWGCDDQPRMYHHTIPVISLYSLRESLALIAEQGLENSWRQHREAAAYLHGRLQALGLQLFVKDPALRLPTVTTVAVPAGYDWRDIVSYVMDHFDIEIMGGLGPSTGKVLRIGLLGCNATRENVDRVTEALRAALQHCPKKKL [S48H I340M] | 88 °C | 18 °C | 2510 kJ/mol |
| MASHKLLVTPPKALLKPLSIPNRLLLGPGPSNLPPRIMAAGGLQMIGHMSKEMYQIMDEIKEGIQYVFQTRNPLTLVISGSGHCALEAALVNVLEPGDSFLVGANGIWGQRAVDIGERIGARVHPMTKDPGGHYTLQEVEEGLAQHKPVLLFLTHGESSTGVLQPLDGFGELCHRYKCLLLVDSVASLGGTPLYMDRQGIDILYSGSQKALNAPPGTSLISFSDKAKKKMYSRKTKPFSFYLDIKWLANFWGCDDQPRMYHHTIPVISLYSLRESLALIAEQGLENSWRQHREAAAYLHGRLQALGLQLFVKDPALRLPTVTTVAVPAGYDWRDIVSYVMDHFDIEIMGGLGPSTGKVLRIGLLGCNATRENVDRVTEALRAALQHCPKKKL [Q23R S48H D52E I340M] | 92 °C | 22 °C | 2550 kJ/mol |
| MASHKLLVTPPKALLKPLSIPNQLLLGPGPSNLPPRIMAAGGLQMIGSMHKDMYQIMDEIKEGIQYVFQTRNPLTLVISGSGHCALEAALVNVLEPGDSFLVGANGIWGQRAVDIGERIGARVHPMTKDPGGHYTLQEVEEGLAQHKPVLLFLTHGESSTGVLQPLDGFGELCHRYKCLLLVDSVASLGGTPLYMDRQGIDILYSGSQKALNAPPGTSLISFSDKAKKKMYSRKTKPFSFYLDIKWLANFWGCDDQPRMYHHTIPVISLYSLRESLALIAEQGLENSWRQHREAAAYLHGRLQALGLQLFVKDPALRLPTVTTVAVPAGYDWRDIVSYVIDHFDIEIMGGLGPSTGKVLRIGLLGCNATRENVDRVTEALRAALQHCPKKKL [S50H] | 67.1 °C | -2.9 °C | 1490 kJ/mol |
| MASHKLLVTPLKALLKPLSIPNQLLLGPGPSNLPPRIMAAGGLQMIGSMSKDMYQIMDEIKEGIQYVFQTRNPLTLVISGSGHCALEAALVNVLEPGDSFLVGANGIWGQRAVDIGERIGARVHPMTKDPGGHYTLQEVEEGLAQHKPVLLFLTHGESSTGVLQPLDGFGELCHRYKCLLLVDSVASLGGTPLYMDRQGIDILYSGSQKALNAPPGTSLISFSDKAKKKMYSRKTKPFSFYLDIKWLANFWGCDDQPRMYHHTIPVISLYSLRESLALIAEQGLENSWRQHREATAYLHGRLQALGLQLFVKDPALRLPTVTTVAVPAGYDWRDIVSYVMDHFDIEIMGGLGPSTGKVLRIGLLGCNATRENVDRVTEALRAALQHCPKKKL [P11L I340M A295T] | 77.5 °C | 7.5 °C | 2090 kJ/mol |
| MASHKLLVTPPKALLKPLSIPNQLLLGPGPSNLPPRIMAAGGLQMIGHMSKEMYQIMDEIKEGIQYVFQTRNPLTLVISGSGHCALEAALVNVLEPGDSFLVGANGIWGQRAADIGERIGARVHPMTKDPGGHYTLQEVEEGLAQHKPVLLFLTHGESSTGVLQPLDGFGELCHRYKCLLLVDSVASLGGTPLYMDRQGIDILYSGSQKALNAPPGTSLISFSDKAKKKMYSRKTKPFSFYLDIKWLANFWGCDDQPRMYHHTIPVISLYSLRESLALIAEQGLENSWRQHREAAAYLHGRLQALGLQLFVKDPALRLPTVTTVAVPAGYDWRDIVSYVMDHFDIEIMGGLGPSTGKVLRIGLLGCNATRENVDRVTEALRAALQHCPKKKL [S48H D52E V113A I340M] | 91 °C | 21 °C | 2560 kJ/mol |
| MASHKLLVTPPKALLKPLSIPNQLLLGPGPSNLPPRIMAAGGLQMIGSMSKEMYQIMDEIKEGIQYVFQTRNPLTLVISGSGHCALEAALVNVLEPGDSFLVGANGIWGQRAVDIGERIGARVHPMTKDPGGHYTLQEVEEGLAQHKPVLLFLTHGESSTGVLQPLDGFGELCHRYKCLLLVDSVASLGGTPLYMDRQGIDILYSGSQKALNAPPGTSLISFSDKAKKKMYSRKTKPFSFYLDIKWLANFWGCDDQPRMYHHTIPVISLYSLRESLALIAEQGLENSWRQHREAAAYLHGRLQALGLQLFVKDPALRLPTVTTVAVPAGYDWRDIVSYVIDHFDIEIMGGLGPSTGKVLRIGLLGCNATRENVDRVTEALRAALQHCPKKKL [D52E] | 84.4 °C | 14.4 °C | 2280 kJ/mol |
| MASHKLLVTPLKALLKPLSIPNQLLLGPGPSNLPPRIMAAGGLQMIGSMSKDMYQIMDEIKEGIQYVFQTRNPLTLVISGSGRCALEAALVNVLEPGDSFLVGANGIWGQRAVDIGERIGARVHPMTKDPGGHYTLQEVEEGLAQHKPVLLFLTHGESSTGVLQPLDGFGELCHRYKCLLLVDSVASLGGTPLYMDRQGIDILYSGSQKALNAPPGTSLISFSDKAKKKMYSRKTKPFSFYLDIKWLANFWGCDDQPRMYHHTIPVISLYSLRESLALIAEQGLENSWRQHREAAAYLHGRLQALGLQLFVKDPALRLPTVTTVAVPAGYDWRDIVSYVMDHFDIEIMGGLGPSTGKVLRIGLLGCNATRENVDRVTEALRAALQHCPKKKL [P11L I340M H83R] | 58.2 °C | -11.8 °C | 983 kJ/mol |
| MASHKLLVTPLKALLKPLSIPNQLLLGPGPSNLPPRIMAAGGLQMIGSMSKDMYQIMDEIKEGIQYVFQTRNPLTLVISGSGHCALEAALVNVLEPGDSFLVGANGIWGQRAVDIGERIGARVHPMTKDPGGHYTLQEVEEGLAQHKPVLLFLTHGESSTGVLQPLDGFGELCHRYKCLLLVDSVASLGGTPLYMDRQGIDILYSGSQKALNAPPGTSLISFSDKAKKKMYSRKTKPFSFYLDTKWLANFWGCDDQPRMYHHTIPVISLYSLRESLALIAEQGLENSWRQHREAAAYLHGRLQALGLQLFVKDPALRLPTVTTVAVPAGYDWRDIVSYVMDHFDIEIMGGLGPSTGKVLRIGLLGCNATRENVDRVTEALRAALQHCPKKKL [P11L I340M I244T] | 75.8 °C | 5.8 °C | 1680 kJ/mol |
| MASHKLLVTPPKALLKPLSIPNRLLLGPGPSNLPPRIMAAGGLQMIGHMSKEMYQIMDEIKEGIQYVFQTRNPLTLVISGSGHCALEAALVNVLEPGDSFLVGANGIWGQRAADIGERIGARVHPMTKDPGGHYTLQEVEEGLAQHKPVLLFLTHGESSTGVLQPLDGFGELCHRYKCLLLVDSVASLGGTPLYMDRQGIDILYSGSQKALNAPPGTSLISFSDKAKKKMYSRKTKPFSFYLDIKWLANFWGCDDQPRMYHHTIPVISLYSLRESLALIAEQGLENSWRQHREAAAYLHGRLQALGLQLFVKDPALRLPTVTTVAVPAGYDWRDIVSYVMDHFDIEIMGGLGPSTGKVLRIGLLGCNATRENVDRVTEALRAALQHCPKKKL [Q23R S48H D52E V113A I340M] | 93.7 °C | 23.7 °C | 2670 kJ/mol |
| MASHKLLVTPPKALLKPLSIPNQLLLGPGPSNLPPRIMAAGGLQMIGHMSKDMYQIMDEIKEGIQYVFQTRNPLTLVISGSGHCALEAALVNVLEPGDSFLVGANGIWGQRAVDIGERIGARVHPMTKDPGGHYTLQEVEEGLAQHKPVLLFLTHGESSTGVLQPLDGFGELCHRYKCLLLVDSVASLGGTPLYMDRQGIDILYSGSQKALNAPPGTSLISFSDKAKKKMYSRKTKPFSFYLDIKWLANFWGCDDQPRMYHHTIPVISLYSLRESLALIAEQGLENSWRQHREAAAYLHGRLQALGLQLFVKDPALRLPTVTTVAVPAGYDWRDIVSYVIDHFDIEIMGGLGPSTGKVLRIGLLGCNATRENVDRVTEALRAALQHCPKKKL [S48H] | 85.5 °C | 15.5 °C | 2180 kJ/mol |
| MASHKLLVTPPKALLKPLSIPNQLLLGPGPSNLPPRIMAAGGLQMIGHMSKEMYQIMDEIKEGIQYVFQTRNPLTLVISGSGHCALEAALVNVLEPGDSFLVGANGIWGQRAVDIGERIGARVHPMTKDPGGHYTLQEVEEGLAQHKPVLLFLTHGESSTGVLQPLDGFGELCHRYKCLLLVDSVASLGGTPLYMDRQGIDILYSGSQKALNAPPGTSLISFSDKAKKKMYSRKTKPFSFYLDIKWLANFWGCDDQPRMYHHTIPVISLYSLRESLALIAEQGLENSWRQHREAAAYLHGRLQALGLQLFVKDPALRLPTVTTVAVPAGYDWRDIVSYVMDHFDIEIMGGLGPSTGKVLRIGLLGCNATRENVDRVTEALRAALQHCPKKKL [S48H D52E I340M] | 89.5 °C | 19.5 °C | 1320 kJ/mol |
